Numbering of substitutions follows the chain as printed. In names and notes the source's numbering stands.
What was measured:
[1] = biological target: hSlo1EM-eGFP-twin-strep (human Slo1 channel, tags on) (human)
[2] = biological target: hSlo1EM (human Slo1 channel, tags released) (human); assay: SEC
[3] = biological target: hSlo1EM-eGFP-twin-strep (human Slo1 channel, tags on) (human); remark: listed apart in the source
[4] = biological target: hSlo1EM-eGFP-twin-strep (human Slo1 channel, tags on) (human); remark: listed apart in the source
[5] = biological target: hSlo1EM-eGFP-twin-strep (human Slo1 channel, tags on) (human); remark: listed apart in the source
[6] = biological target: the molecule itself; assay: SEC
[7] = biological target: the molecule itself; assay: cryo-EM structure
[8] = biological target: hSlo1EM (human Slo1 channel, tags released) (human); assay: cryo-EM structure

hSlo1EM-eGFP-twin-strep (human Slo1 channel, tags on) (human), sequence (Q12791 whole entry): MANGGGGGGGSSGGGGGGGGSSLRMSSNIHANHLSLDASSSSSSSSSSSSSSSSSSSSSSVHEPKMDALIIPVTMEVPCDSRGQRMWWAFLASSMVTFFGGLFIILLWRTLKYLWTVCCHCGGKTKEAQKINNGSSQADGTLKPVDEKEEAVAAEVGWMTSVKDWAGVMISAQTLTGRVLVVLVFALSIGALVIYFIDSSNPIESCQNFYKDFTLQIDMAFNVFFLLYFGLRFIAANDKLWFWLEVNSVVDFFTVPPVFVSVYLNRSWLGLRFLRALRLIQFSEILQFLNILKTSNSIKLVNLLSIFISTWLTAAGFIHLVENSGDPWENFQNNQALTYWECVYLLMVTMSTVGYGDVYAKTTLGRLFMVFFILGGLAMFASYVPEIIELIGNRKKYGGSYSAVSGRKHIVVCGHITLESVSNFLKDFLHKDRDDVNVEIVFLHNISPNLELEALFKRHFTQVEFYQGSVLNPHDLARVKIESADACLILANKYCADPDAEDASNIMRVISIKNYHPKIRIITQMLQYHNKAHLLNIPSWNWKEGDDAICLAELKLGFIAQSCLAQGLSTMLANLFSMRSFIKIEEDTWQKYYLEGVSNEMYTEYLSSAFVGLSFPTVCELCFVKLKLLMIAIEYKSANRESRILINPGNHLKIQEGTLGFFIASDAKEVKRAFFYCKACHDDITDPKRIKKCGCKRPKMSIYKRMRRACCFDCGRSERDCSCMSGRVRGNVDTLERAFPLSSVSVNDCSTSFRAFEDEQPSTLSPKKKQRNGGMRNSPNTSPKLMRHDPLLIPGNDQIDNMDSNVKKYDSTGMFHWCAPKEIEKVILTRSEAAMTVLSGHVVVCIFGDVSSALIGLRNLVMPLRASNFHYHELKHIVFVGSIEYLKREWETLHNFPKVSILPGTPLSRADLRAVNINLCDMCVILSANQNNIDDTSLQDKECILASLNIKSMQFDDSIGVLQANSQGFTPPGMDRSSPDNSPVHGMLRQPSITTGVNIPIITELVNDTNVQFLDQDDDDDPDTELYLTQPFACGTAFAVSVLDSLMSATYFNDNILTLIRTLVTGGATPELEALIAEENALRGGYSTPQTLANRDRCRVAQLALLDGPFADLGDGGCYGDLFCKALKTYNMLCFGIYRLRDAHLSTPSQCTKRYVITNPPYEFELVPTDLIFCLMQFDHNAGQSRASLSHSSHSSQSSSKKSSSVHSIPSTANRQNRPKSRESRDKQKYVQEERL

Q: Which stoichiometry N [1] does the source give for “hSlo1EM-eGFP-twin-strep (human Slo1 channel, tags on) (natural protein)” here?
A: Its stoichiometry N is 4 subunits.

Q: With “hSlo1EM (human Slo1 channel, tags released) (natural protein)” as the molecule, how does the stoichiometry N [2] read?
A: Its stoichiometry N is 4 subunits.

B1: human LRRC26 (γ1)-mCherry-FLAG (natural protein, UniProt Q2I0M4 27-334, looked up)
chain: QVSATASPSGSLGAPDCPEVCTCVPGGLASCSALSLPAVPPGLSLRLRALLLDHNRVRALPPGAFAGAGALQRLDLRENGLHSVHVRAFWGLGALQLLDLSANQLEALAPGTFAPLRALRNLSLAGNRLARLEPAALGALPLLRSLSLQDNELAALAPGLLGRLPALDALHLRGNPWGCGCALRPLCAWLRRHPLPASEAETVLCVWPGRLTLSPLTAFSDAAFSHCAQPLALRDLAVVYTLGPASFLVSLASCLALGSGLTACRARRRRLRTAALRPPRPPDPNPDPDPHGCASPADPGSPAAAAQA
Q: What does the source list for B1?
A: stoichiometry N (auxiliary subunits per Slo1 tetramer) [3]: 4; percent of total Slo1 in complex [4]: 50%; stoichiometry N (γ1 subunits per Slo1 tetramer) [5]: 3.5; binding result [6]: binds

B2: β4 subunit-mCherry-FLAG (natural protein)
chain: MAKLRVAYEYTEAEDKSIRLGLFLIISGVVSLFIFGFCWLSPALQDLQATEANCTVLSVQQIGEVFECTFTCGADCRGTSQYPCVQVYVNNSESNSRALLHSDEHQLLTNPKCSYIPPCKRENQKNLESVMNWQQYWKDEIGSQPFTCYFNQHQRPDDVLLHRTHDEIVLLHCFLWPLVTFVVGVLIVVLTICAKSLAVKAEAMKKRKFS
Q: With B2 as the molecule, how does the stoichiometry N (auxiliary subunits per Slo1 tetramer) [3] read?
A: The stoichiometry N (auxiliary subunits per Slo1 tetramer) was 4.

Q: And the percent of total Slo1 in complex [4]?
A: Its percent of total Slo1 in complex is > 90%.

B3: β2 subunit-mCherry-FLAG (natural protein)
chain: MFIWTSGRTSSSYRHDEKRNIYQKIRDHDLLDKRKTVTALKAGEDRAILLGLAMMVCSIMMYFLLGITLLRSYMQSVWTEESQCTLLNASITETFNCSFSCGPDCWKLSQYPCLQVYVNLTSSGEKLLLYHTEETIKINQKCSYIPKCGKNFEESMSLVNVVMENFRKYQHFSCYSDPEGNQKSVILTKLYSSNVLFHSLFWPTCMMAGGVAIVAMVKLTQYLSLLCERIQRINR
Q: B3 was tested. Which stoichiometry N (auxiliary subunits per Slo1 tetramer) [3] did it give?
A: Its stoichiometry N (auxiliary subunits per Slo1 tetramer) is 4.

Q: And the percent of total Slo1 in complex [4]?
A: The percent of total Slo1 in complex was > 90%.

B4: LRRC55 (γ3)-mCherry-FLAG (natural protein)
chain: GTSCPVLCTCRNQVVDCSSQRLFSVPPDLPMDTRNLSLAHNRITAVPPGYLTCYMELQVLDLHNNSLMELPRGLFLHAKRLAHLDLSYNNFSHVPADMFQEAHGLVHIDLSHNPWLRRVHPQAFQGLMQLRDLDLSYGGLAFLSLEALEGLPGLVTLQIGGNPWVCGCTMEPLLKWLRNRIQRCTADSQLAECRGPPEVEGAPLFSLTEESFKACHLTLTLDDYLFIAFVGFVVSIASVATNFLLGITANCCHRWSKASEEEEI
Q: Which percent of total Slo1 in complex [4] does the source give for B4 here?
A: The percent of total Slo1 in complex was < 10%.

B5: LRRC38 (γ4)-mCherry-FLAG (natural protein)
chain: CPAGCACTDPHTVDCRDRGLPSVPDPFPLDVRKLLVAGNRIQRIPEDFFIFYGDLVYLDFRNNSLRSLEEGTFSGSAKLVFLDLSYNNLTQLGAGAFRSAGRLVKLSLANNNLVGVHEDAFETLESLQVLELNDNNLRSLSVAALAALPALRSLRLDGNPWLCDCDFAHLFSWIQENASKLPKGLDEIQCSLPMESRRISLRELSEASFSECRFSLSLTDLCIIIFSGVAVSIAAIISSFFLATVVQCLQRCAPNKDAEDEDEDKDD
Q: Which percent of total Slo1 in complex [4] does the source give for B5 here?
A: The percent of total Slo1 in complex was < 10%.

B6: γ1 P270F-mCherry-FLAG (natural protein)
chain: B1 chain with P244F
Q: For B6, which stoichiometry N (γ subunits per Slo1 tetramer) [3] is on record?
A: Its stoichiometry N (γ subunits per Slo1 tetramer) is 2.4.

B7: human LRRC26 (γ1) subunit, tags released (natural protein, UniProt Q2I0M4 27-334, looked up)
chain: B1 chain
modifications: density at N147 likely corresponding to glycosylation
Q: Does B7 bind [7]?
A: Result: binds

Q: And the stoichiometry N (γ1 subunits per Slo1 tetramer) [8]?
A: The stoichiometry N (γ1 subunits per Slo1 tetramer) was 4.

B8: LRRD of γ1 (residues 1-261)-mCherry-FLAG (domain or fragment, human, UniProt Q2I0M4 27-261, looked up)
chain: QVSATASPSGSLGAPDCPEVCTCVPGGLASCSALSLPAVPPGLSLRLRALLLDHNRVRALPPGAFAGAGALQRLDLRENGLHSVHVRAFWGLGALQLLDLSANQLEALAPGTFAPLRALRNLSLAGNRLARLEPAALGALPLLRSLSLQDNELAALAPGLLGRLPALDALHLRGNPWGCGCALRPLCAWLRRHPLPASEAETVLCVWPGRLTLSPLTAFSDAAFSHCAQPLALRD
Q: Does B8 bind [6]?
A: Result: binds

Reference: doi:10.1101/2023.12.20.572542 (bioRxiv, 2023)
